Results reported in publication PMC4321490, “Structural analysis of DNA binding by C.Csp231I, a member of a novel class of R-M controller proteins regulating gene expression”.

Assays:
[1] = molecular target: C.Csp231I controller protein (Citrobacter sp. RFL231); experiment: crystal structure; C.Csp231I in complex with 21 bp OL or OR operator DNA duplexes; three crystal forms (P6(1) OL 2.30 Å, C2 OL 2.75 Å, P6(1) OR 1.80 Å); subunits within one protein dimer
[2] = molecular target: T1, C.Csp231I (Citrobacter sp. RFL231, UniProt Q32WH4 1-98); experiment: EMSA; single dimer at the OL site; 2 uM DNA; EMSA: 10 mM Tris-HCl pH 8.0, 0.1 M NaCl, 1 mM EDTA, room temperature 30 min, 2 uM DNA, 6.5% native PAGE in 0.25x TBE; AUC: same buffer, 20 C; conditions: protein: recombinant; chain copies: 2
T1 sequence: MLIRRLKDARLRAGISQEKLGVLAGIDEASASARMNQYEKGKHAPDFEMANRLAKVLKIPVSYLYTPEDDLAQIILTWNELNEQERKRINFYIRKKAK

[3] = molecular target: T2, C.Csp231I (two dimers) (Citrobacter sp. RFL231, UniProt Q32WH4 1-98); experiment: EMSA; larger complex at 4:1 and above; 2 uM DNA; EMSA: 10 mM Tris-HCl pH 8.0, 0.1 M NaCl, 1 mM EDTA, room temperature 30 min, 2 uM DNA, 6.5% native PAGE in 0.25x TBE; AUC: same buffer, 20 C; conditions: protein: recombinant; chain copies: 4
T2 sequence: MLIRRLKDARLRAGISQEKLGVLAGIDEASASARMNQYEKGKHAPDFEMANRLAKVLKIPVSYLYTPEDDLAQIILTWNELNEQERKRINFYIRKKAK

[4] = molecular target: T1, C.Csp231I; experiment: EMSA; single complex up to 2:1 subunits per duplex; 2 uM DNA; EMSA: 10 mM Tris-HCl pH 8.0, 0.1 M NaCl, 1 mM EDTA, room temperature 30 min, 2 uM DNA, 6.5% native PAGE in 0.25x TBE; AUC: same buffer, 20 C; conditions: protein: recombinant; chain copies: 2
[5] = molecular target: T2, C.Csp231I (two dimers); experiment: EMSA; little effect of spacer mutation; 2 uM DNA; EMSA: 10 mM Tris-HCl pH 8.0, 0.1 M NaCl, 1 mM EDTA, room temperature 30 min, 2 uM DNA, 6.5% native PAGE in 0.25x TBE; AUC: same buffer, 20 C; conditions: protein: recombinant; chain copies: 4
[6] = molecular target: T1, C.Csp231I; experiment: crystal structure; C2 form, 2.75 A, two complexes per asymmetric unit; EMSA: 10 mM Tris-HCl pH 8.0, 0.1 M NaCl, 1 mM EDTA, room temperature 30 min, 2 uM DNA, 6.5% native PAGE in 0.25x TBE; AUC: same buffer, 20 C; conditions: protein: recombinant; chain copies: 2
[7] = molecular target: T1, C.Csp231I; experiment: EMSA; one dimer binds; 2 uM DNA; EMSA: 10 mM Tris-HCl pH 8.0, 0.1 M NaCl, 1 mM EDTA, room temperature 30 min, 2 uM DNA, 6.5% native PAGE in 0.25x TBE; AUC: same buffer, 20 C; conditions: protein: recombinant; chain copies: 2

In the case of “C.Csp231I controller protein (natural protein)”, the stoichiometry N [1] is reported as 2.

B1: 54-2 (OR randomized) (dsDNA)
DNA 1: ACACTAAGGAAAACTTAGTAAAATTGCTTTTTTAAATAAGACTCGTTAAAAAAC
DNA 2: GTTTTTTAACGAGTCTTATTTAAAAAAGCAATTTTACTAAGTTTTCCTTAGTGT
B1: binds [2].

B2: 54-1 (native OL+OR) (dsDNA)
DNA 1: ACACTAAGGAAAACTTAGTAAAATTGCTTTTTTAAACTAAGAAAATCTTAGCAA
DNA 2: TTGCTAAGATTTTCTTAGTTTAAAAAAGCAATTTTACTAAGTTTTCCTTAGTGT
B2: binds [3]; binds [4].

B3: 54-3 (spacer randomized) (dsDNA)
DNA 1: ACACTAAGGAAAACTTAGTAACTGCATGCTACCAAACTAAGAAAATCTTAGCAA
DNA 2: TTGCTAAGATTTTCTTAGTTTGGTAGCATGCAGTTACTAAGTTTTCCTTAGTGT
B3: binds [5].

B4: OL 21-mer (dsDNA)
DNA 1: ACACTAAGGAAAACTTAGTAA
DNA 2: TTACTAAGTTTTCCTTAGTGT
B4: binds [6].

B5: 48-1 (6 bp spacer deletion) (dsDNA)
DNA 1: ACACTAAGGAAAACTTAGTAAAATTTTAAACTAAGAAAATCTTAGCAA
DNA 2: TTGCTAAGATTTTCTTAGTTTAAAATTTTACTAAGTTTTCCTTAGTGT
B5: binds [7].
